For the test, the target named is mesothelin (UniProt Q13421 296-598). The experiment in a line: ELISA, purified phages added to mesothelin coated wells.
mesothelin, sequence (Q13421 other isoform, or with tags, fused parts or gaps limits assumed): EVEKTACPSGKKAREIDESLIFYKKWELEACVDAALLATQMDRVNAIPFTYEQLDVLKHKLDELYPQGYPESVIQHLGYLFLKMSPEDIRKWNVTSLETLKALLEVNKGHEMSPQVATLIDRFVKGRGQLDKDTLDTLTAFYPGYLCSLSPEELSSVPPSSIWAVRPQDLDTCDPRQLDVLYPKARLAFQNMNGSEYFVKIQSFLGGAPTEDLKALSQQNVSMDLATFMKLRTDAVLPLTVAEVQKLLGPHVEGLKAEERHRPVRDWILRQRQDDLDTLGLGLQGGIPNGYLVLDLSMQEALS

B1: D-cmyc fusion protein displayed on lambda phage λDcDL1 (other)
chain (part 1 of 2): MTSKETFTHYQPQGNSDPAHTATAPGGLSAKAPAMTPLMLDTSSRKLVAWDGTTDGAAVGILAVAADQTSTTLTFYKSGTFRYEDVLWPEAASDETKKRTAFAGTAISIV
chain (part 2 of 2): EQKLISEEDL
notes: also called DcDL1 phages
Turning to B1, the binding result is recorded as “no binding”.
